From publication PMC12687424, “Penetrant PKCβ mutation in ATLL displays a mixed gain-of-function” (Biochemical Journal, 2025)
FAM = fluorescein label

Experiments:
[1] = biological target: T1, D427N PKCβII catalytic domain (UniProt P05771-2 321-673, D427N, phosphorylated at T500 and at the other two PKC priming sites in the C-terminal tail); test: fluorescence polarisation; PKCβII catalytic domain titrated into 280 nM fluorescein-PSS peptide in a cuvette; 20°C; 50 mM Tris-HCl pH 7.5, 150 mM NaCl, 5 mM MgCl2, 0.05% Brij-35, 500 μM AMP-PCP, 5% glycerol; anisotropy fitted assuming a 1:1 interaction; details: both partners purified
T1 construct: D427N is a somatic mutation found in ATLL patients; source: SF21 cells (baculovirus), purified (Glutathione-Sepharose, His-TEV cleavage, Superdex 200); not shown: GST, N-terminal, cleaved

[2] = biological target: T2, WT PKCβII catalytic domain (UniProt P05771-2 321-673, primed (phosphorylated) at the three PKC priming sites (T-loop, turn motif, hydrophobic motif)); test: as above; details: both partners purified
T2 construct: Protein kinase C beta, isoform PKCβII, catalytic domain released by TEV cleavage from GST-(3C)-PKCβII that carries a TEV site at position 321; Plasmids for WT PKCβI and PKCβII came from the laboratory archive; also called protein kinase C beta II catalytic domain; PKCβII kinase domain; source: SF21 cells (baculovirus), purified (Glutathione-Sepharose, His-TEV cleavage, Superdex 200); not shown: …
T2 sequence (P05771 other isoform, or with tags, fused parts or gaps): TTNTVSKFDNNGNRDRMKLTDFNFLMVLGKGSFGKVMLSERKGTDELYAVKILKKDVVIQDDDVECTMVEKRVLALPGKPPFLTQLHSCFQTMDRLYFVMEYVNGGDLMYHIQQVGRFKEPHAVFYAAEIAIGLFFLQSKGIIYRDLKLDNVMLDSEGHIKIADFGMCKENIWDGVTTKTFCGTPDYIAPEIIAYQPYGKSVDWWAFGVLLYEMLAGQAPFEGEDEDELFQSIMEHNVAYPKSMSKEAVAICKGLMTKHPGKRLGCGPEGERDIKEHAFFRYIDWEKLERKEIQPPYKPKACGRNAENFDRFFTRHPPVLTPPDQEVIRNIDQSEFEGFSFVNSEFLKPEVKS

T1 sequence (P05771 other isoform, or with tags, fused parts or gaps D427N | D427N | D427N D427N): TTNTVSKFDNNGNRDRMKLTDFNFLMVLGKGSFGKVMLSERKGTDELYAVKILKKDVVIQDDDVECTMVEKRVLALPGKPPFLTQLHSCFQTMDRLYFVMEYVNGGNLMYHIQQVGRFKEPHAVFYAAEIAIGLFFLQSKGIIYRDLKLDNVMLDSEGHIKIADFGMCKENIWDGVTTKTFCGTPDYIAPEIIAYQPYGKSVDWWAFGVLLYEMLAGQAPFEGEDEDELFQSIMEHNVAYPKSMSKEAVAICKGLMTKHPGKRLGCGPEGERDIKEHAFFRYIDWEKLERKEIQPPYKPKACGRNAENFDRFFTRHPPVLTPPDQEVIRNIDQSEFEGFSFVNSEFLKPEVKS

B1: Fluorescein-PSS peptide (peptide)
peptide: {FAM}-ESTVRFARKGSLRQKNVH-NH2
notes: source: synthetic peptide (HPLC purified to >95%)
[1]
  Kd: 72 µM
[2]
  Kd: 35.3 µM
